Experimental data taken from patent US20170320965A1, “PAN-REACTIVE ANTIBODIES TO DUOCARMYCINS” (SYNTHON BIOPHARMACEUTICALS B.V., priority 2014, published 2017).

B1: C-16-1-7: monoclonal, pan-reactive anti-duocarmycin antibody derived from hapten C; VH/VL SEQ ID NO:5 and 6 (antibody, listed as Mus musculus, V domains shown)
VH: EVKLVESGGGLVKPGGSLKVSCAASGFTFSSYAMSWVRQIPDKRLEWVASISTGGITYYLDGVKGRFTISRDNARNILYLQMSSLRSEDTAIYYCARWSYAMDYWGQGTSVTVSS
VL: QIVLTQSPAIMSASLGERVTMTCTASSSVSSSYLHWYQQKPGSSPKVWIYSTSNLASGVPARFRGSGSGTSYSLTISSMEAEDAATYYCHQYHRSPPTFGGGTKLEIK
B2: B-6-2-10: monoclonal, pan-reactive anti-duocarmycin antibody derived from hapten B; VH/VL SEQ ID NO:3 and 4 (antibody, listed as Mus musculus, V domains shown)
VH: DVKLVESGGGLVKPGGSLKLSCAASGFTFRTYTMSWVRQTPEKRLEWVATISSGGSYTYYPDSMKGRFTISRDNAKNTLYLQMSSLKSEDTAMYYCTRGPFYDVYYFLFAYWGQGTLVTVSA
VL: QAVVTQESALTTSPGETVTLTCRSSIGAVTTTNYANWVQEKPDHLFTGLIGGTNNRAPGVPARFSGSLIGDKAALTITGAQTEDEAIYFCALWYSNHWVFGGGTKLTVL
B3: A-15-5-4: monoclonal, pan-reactive anti-duocarmycin antibody derived from hapten A; VH/VL SEQ ID NO:1 and 2 (antibody, listed as Mus musculus, V domains shown)
VH: QVQLQQPGAELVKPGASVKLPCKASGYTFISYYMYWVKQRPGQGLEWIGVINPSNGGTTFNEKFKNKATLTVDKSSSTAYLQLSSLTSEDSAVYYCTCLNYYGSSYWYFDVWGAGTTVTVSS
VL: DVVMTQTPLSLPVSLGDQASIFCRSSQSLVHSDGNTYLHWYLQKPGQSPKLLIYTVSNRFSGVPDRFSGSGSGTDFTLKISRVEAEDLGVYFCSQSTHVPWTFGGGTTLEIK

System: panel of 18 different duocarmycin-containing antibody-drug conjugates having a common DNA alkylating moiety
Experiment: BIA (Biomolecular Interaction Analysis) assay, surface plasmon resonance, second screening for pan-reactive antibodies
Type: binding
Conditions: anti-hapten mAb captured on polyclonal anti-mouse surface; ADCs 1 to 18 of FIG. 2 injected sequentially, approx. 20 μg/mL, 25° C.
From the text: The samples of the supernatant culture fluid are screened with a suitable assay for the selection of pan-reactive antibodies reactive to the antigen. Suitable immunoassays are well known and may be readily determined by the person skilled in the art. A preferred immuno-assay is the Biomolecular Interaction Analysis (BIA) assay in which the sensor chip surface is modified by immobilization of polyclonal anti-mouse which results in a surface that can bind any mouse monoclonal antibodies.
In a specific embodiment of the present invention, the BIA assay is performed using an anti-hapten A, B or C monoclonal antibody captured on a polyclonal anti-mouse surface to a high binding level (capture reagent). Subsequently, a panel of duocarmycin-containing antibody-drug conjugates is injected sequentially and the signal (RU, resonance or responsive units) indicating binding is recorded. The panel of duocarmycin derivatives contain the same DNA alkylating moiety as a common structural moiety (as shown hereinabove), but have a different DNA binding moiety, and/or linker, and/or antibody. Monoclonal, pan-reactive antibodies are selected based on surface plasmon resonance (SPR), which response is directly proportional to the mass increase on the surface. An increase in mass on the surface is a positive binding reaction. Those antibodies binding to at least 3, preferably at least 5, more preferably at least 10, even more preferably at least 15, most preferably at least 18 different duocarmycin-containing antibody-drug conjugates having the same DNA alkylating moiety described hereinabove, are selected as pan-reactive antibodies in accordance with the present invention.
The BIA (Biomolecular Interaction Analysis) assay was used for the selection of monoclonal, pan-reactive antibodies. One flow cell on a CMS sensor chip was immobilized by amine coupling with polyclonal anti-mouse to a level of approx. 16,000 RU. […]

| Molecule | binding to a panel of 18 different duocarmycin-containing antibody-drug conjugates |
| --- | --- |
| B1 | show binding |
| B2 | show binding |
| B3 | show binding |
